The experiment has as its target SARS-CoV-2 S receptor-binding domain (RBD) with C-terminal His6 tag (SARS-CoV-2, glycan N343). The experiment is described as follows: BLI. In general terms: In BLI a coated tip is dipped into the sample, and binding shifts an interference pattern.

As a reminder, the Kd is the concentration at which binding is half-saturated.

B1: CR3022 IgG (human IgG1, kappa) (antibody, V domains shown)
VH: EVQLVQSGTEVKKPGESLKISCKGSGYGFITYWIGWVRQMPGKGLEWMGIIYPGDSETRYSPSFQGQVTISADKSINTAYLQWSSLKASDTAIYYCAGGSGISTPMDVWGQGTTVTVSS
VL: not shown
Regarding B1, the affinity, expressed as Kd, was 12.4 nM.

Source of the values: paper doi:10.1101/2020.03.15.992883 (2020).
